Where a chain is given by its changes, count along the chain named. Names may count otherwise.
B1: 1C_GAS (dsDNA)
DNA 1: GCTGCCACTAGAGTTTTTTCGGGAAAAGATCATCAAGAGCACACGGG
DNA 2: CCCGTGTGCTCTTGATGATCTTTTCCCGAAAAAACTCTAGTGGCAGC
B2: 0T_GAS (dsDNA)
DNA 1: B1 DNA 1 with C20T, G21A
DNA 2: B1 DNA 2 with C27T, G28A
B3: 3C_GAS (dsDNA)
DNA 1: B1 DNA 1 with T18C, T19C
DNA 2: B1 DNA 2 with A29G, A30G
B4: 2T_GAS (dsDNA)
DNA 1: B1 DNA 1 with T18C, T19C, C20T, G21A
DNA 2: B1 DNA 2 with C27T, G28A, A29G, A30G
B5: 1T_GAS (dsDNA)
DNA 1: B1 DNA 1 with T19C, C20T, G21A
DNA 2: B1 DNA 2 with C27T, G28A, A29G
B6: tSTATcc (truncated STAT1α, amino acids 132–713, with A656C and N658C) (domain or fragment, UniProt P42224 132-713, looked up)
chain: STVMLDKQKELDSKVRNVKDKVMCIEHEIKSLEDLQDEYDFKCKTLQNREHETNGVAKSDQKQEQLLLKKMYLMLDNKRKEVVHKIIELLNVTELTQNALINDELVEWKRRQQSACIGGPPNACLDQLQNWFTIVAESLQQVRQQLKKLEELEQKYTYEHDPITKNKQVLWDRTFSLFQQLIQSSFVVERQPCMPTHPQRPLVLKTGVQFTVKLRLLVKLQELNYNLKVKVLFDKDVNERNTVKGFRKFNILGTHTKVMNMEESTNGSLAAEFRHLQLKEQKNAGTRTNEGPLIVTEELHSLSFETQLCQPGLVIDLETTSLPVVVISNVSQLPSGWASILWYNMLVAEPRNLSFFLTPPCARWAQLSEVLSWQFSSVTKRGLNVDQLNMLGEKLLGPNASPDGLIPWTRFCKENINDKNFPFWLWIESILELIKKHLLPLWNDGCIMGFISKERERALLKDQQPGTFLLRFSESSREGAITFTWVERSQNGGEPDFHAVEPYTKKELSAVTFPDIIRNYKVMACECIPENPLKYLYPNIDKDHAFGKYYSRPKEAPEPMELDGPKGTGYIKTELISVSEVH

These binders were tested against tSTATcc-N460H (UniProt P42224 132-713, N460H;A656C;N658C) (assay: Spec-seq).
Chain of tSTATcc-N460H (P42224 132-713 N460H/A656C/N658C): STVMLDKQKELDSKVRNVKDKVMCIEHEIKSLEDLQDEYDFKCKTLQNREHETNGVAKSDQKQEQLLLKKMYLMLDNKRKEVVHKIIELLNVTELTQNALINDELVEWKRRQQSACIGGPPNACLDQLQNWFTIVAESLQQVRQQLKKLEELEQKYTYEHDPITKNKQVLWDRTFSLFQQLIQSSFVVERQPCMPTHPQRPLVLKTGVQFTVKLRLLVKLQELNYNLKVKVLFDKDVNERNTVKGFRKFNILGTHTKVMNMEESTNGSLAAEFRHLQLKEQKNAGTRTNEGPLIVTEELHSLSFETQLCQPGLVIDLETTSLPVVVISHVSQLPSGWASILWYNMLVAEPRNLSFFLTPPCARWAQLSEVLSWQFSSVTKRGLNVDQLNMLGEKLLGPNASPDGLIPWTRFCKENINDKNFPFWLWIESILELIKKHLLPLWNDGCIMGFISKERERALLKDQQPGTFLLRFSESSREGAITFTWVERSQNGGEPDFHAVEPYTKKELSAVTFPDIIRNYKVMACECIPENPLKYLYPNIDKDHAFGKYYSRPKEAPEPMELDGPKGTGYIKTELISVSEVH

Binder | binding signal
B1 | 1.8 kT (ddG vs 2C_GAS)
B2 | 1.8 kT (ddG vs 2C_GAS)
B3 | 1.6 kT (ddG vs 2C_GAS)
B4 | 1.7 kT (ddG vs 2C_GAS)
B5 | 1.7 kT (ddG vs 2C_GAS)

What follows are binders tested against tSTATcc (truncated STAT1, C-C dimer) (UniProt P42224 132-713, A656C;N658C) (assay: Spec-seq).

Binder | binding signal
B1 | 1.6 kT (ddG vs 2C_GAS)
B2 | 1.5 kT (ddG vs 2C_GAS)
B3 | 1.6 kT (ddG vs 2C_GAS)
B4 | 1.9 kT (ddG vs 2C_GAS)
B5 | 1.7 kT (ddG vs 2C_GAS)

Molecular target: the molecule itself
Assay: non-reducing SDS-PAGE

Binder | stoichiometry N
B6 | 2

Reference: PMC5737217 (Nucleic Acids Research, 2017)
